# Data: the RNAGym collection of RNA variant scans (doi:10.1093/molbev/msab373)
# B1: Azoarcus group I ribozyme (parent)
# chain: GUGCCUUGCGCCGGGAAACCACGCAAGGGAUGGUGUCAAAUUCGGCGAAACCUAAGCGCCCGCCCGGGCGUAUGGCAACGCCGAGCCAAGCUUCGGCGCCUGCGCCGAUGAAGGUGUAGAGACUAGACGGCACCCACCUAAGGCAAACGCUAUGGUGAAGGCAUAGUCCAGGGAGUGGCGAAAGUCACACAAACCGG
# Variants of: B1
# Assay: reverse-splicing fitness (ratio to wild type); higher = more active; in vitro selection; Mg2+ level not given
# Procedure, shortened: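 An in vitro group I ribozyme library with randomized positions was T7-transcribed and gel-purified. In triplicate, 10 pmol RNA in EPPS pH 7.5 was reacted with 50 pmoles of a 30-nt RNA substrate for 1 h at 37 °C across several added MgCl2 levels (1–48 mM), then stopped with EDTA. Products were reverse transcribed from a substrate-complementary primer, PCR-amplified and sequenced (HiSeq 4000). Fitness is a variant's read proportion after selection over that before, normalised to wild type.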
row,Variant,reverse-splicing fitness
1,A111G A120G A145G C150U C169U U176G,0.00628
2,A111G A120G A145G C150U C169U U176A,0.0625
3,A111G A120G A145G C150U C169U U176C,0.0831
4,A111G A120G A145G C150A U176C,0.0374
5,A111G A120G A145G C150A U176G,0.00788
6,A111G A120G A145G C150A U176A,0.0225
7,A111G A120G A145C C150G C169U U176C,0.0162
8,A111G A120G A145C C150G C169U U176G,0.00502
9,A111G A120G A145C C150G C169U U176A,0.0176
10,A111G A120C C150A C169G U176G,0.00513
11,A111G A120C C150A C169G U176C,0.0196
12,A111G A120C C150G C169U U176A,0.00767
13,A111G A120C C150G C169U U176G,0.0044
14,A111G A120C C150G C169U U176C,0.0152
15,A111G A120G A145G C150U C169U,0.2
16,A111G A120G A145G C150U C169A,0.131
17,A111G A120G A145G C150U C169G,0.255
18,A111G A120G A145C C169G U176A,0.079
19,A111G A120G A145C C169G U176G,0.00658
20,A111G A120G A145C C169G U176C,0.0984
21,A111G A120G A145C C150G C169G U176G,0.00389
22,A111G A120G A145C C150G C169G U176C,0.00653
23,A111G A120G A145C C150G C169G U176A,0.0101
24,A111G A120G A145C C150A C169U,0.0192

row,Variant,reverse-splicing fitness
1,A111G A120G A145C C150A C169A,0.0124
2,A111G A120G A145C C150A C169G,0.0196
3,A111G A120G A145C C150U U176G,0.00705
4,A111G A120G A145C C150U U176C,0.038
5,A111G A120G A145C C150U U176A,0.0317
6,A111G A120C C150A C169U U176G,0.00616
7,A111G A120C C150A C169U U176A,0.0231
8,A111G A120C C150A C169U U176C,0.022
9,A111G A120G A145C C150U C169U U176C,0.0306
10,A111G A120G A145C C150U C169U U176A,0.0353
11,A111G A120G A145C C150U C169U U176G,0.00645
12,A111G A120C C150G C169G,0.0068
13,A111G A120C C150G C169A,0.00889
14,A111G A120C C150G C169U,0.0262
15,A111G A120G A145G C150A,0.0452
16,A111G A120G A145G C150G,0.0366
17,A111G A120G A145G C150U,0.244
18,A111G A120G A145G C150A C169A U176G,0.00569
19,A111G A120G A145G C150A C169A U176C,0.0283
20,A111G A120G A145G C150A C169A U176A,0.0193
21,A111G A120G A145C C150A C169U U176G,0.00508
22,A111G A120G A145C C150A C169U U176C,0.0129
23,A111G A120G A145C C150A C169U U176A,0.0233
24,A111G A120C C169U U176G,0.00675

row,Variant,reverse-splicing fitness
1,A111G A120C C169U U176C,0.0857
2,A111G A120C C169U U176A,0.0684
3,A111G A120G A145C U176G,0.00892
4,A111G A120G A145C U176C,0.104
5,A111G A120G A145C U176A,0.0723
6,A111G A120G A145C C150G C169U,0.0356
7,A111G A120G A145C C150G C169A,0.0226
8,A111G A120G A145C C150G C169G,0.0368
9,A111G A120G A145C C169A,0.158
10,A111G A120G A145C C169U,0.219
11,A111G A120G A145C C169G,0.3
12,A111G A120G A145C C150A C169G U176C,0.0168
13,A111G A120G A145C C150A C169G U176A,0.0264
14,A111G A120G A145C C150A C169G U176G,0.00542
15,A111G A120C C150G,0.0783
16,A111G A120C C150U,0.528
17,A111G A120C C169G U176A,0.0158
18,A111G A120C C169G U176C,0.0183
19,A111G A120C C169G U176G,0.00351
20,A111G A120C C150U C169U U176G,0.00603
21,A111G A120C C150U C169U U176C,0.0445
22,A111G A120C C150U C169U U176A,0.0417
23,A111G A120G A145G C150U C169G U176A,0.0549
24,A111G A120G A145G C150U C169G U176C,0.078

row,Variant,reverse-splicing fitness
1,A111G A120G A145G C150U C169G U176G,0.00563
2,A111G A120C C150G C169G U176G,0.00385
3,A111G A120C C150G C169G U176A,0.00631
4,A111G A120C C150G C169G U176C,0.00358
5,A111G A120C C150U U176C,0.337
6,A111G A120C C150U U176G,0.0682
7,A111G A120C C150U U176A,0.314
8,A111G A120G A145G C150G C169A U176A,0.0122
9,A111G A120G A145G C150G C169A U176C,0.0143
10,A111G A120G A145G C150G C169A U176G,0.00709
11,A111G A120G A145C C150A U176G,0.00495
12,A111G A120G A145C C150A U176A,0.0131
13,A111G A120G A145C C150A U176C,0.0131
14,A111G A120C C150U C169G,0.0131
15,A111G A120C C150U C169U,0.161
16,A111G A120C C150U C169A,0.012
17,A111G A120C C150A U176C,0.0799
18,A111G A120C C150A U176G,0.0222
19,A111G A120C C150A U176A,0.0735
20,A111G A120G A145C C150U C169A U176A,0.0171
21,A111G A120G A145C C150U C169A U176G,0.00411
22,A111G A120G A145C C150U C169A U176C,0.0168
23,A111G A120G A145C C150G U176A,0.014
24,A111G A120G A145C C150G U176C,0.0228

row,Variant,reverse-splicing fitness
1,A111G A120G A145C C150G U176G,0.00289
2,A111G A120G A145G C150G C169G,0.0306
3,A111G A120G A145G C150G C169U,0.0343
4,A111G A120G A145G C150G C169A,0.0213
5,A111G A120G A145C,0.266
6,A111G A120G A145G,0.285
7,A111G A120G A145C C169A U176G,0.00382
8,A111G A120G A145C C169A U176C,0.0567
9,A111G A120G A145C C169A U176A,0.0345
10,A111G A120G A145G C150A C169G U176A,0.0262
11,A111G A120G A145G C150A C169G U176G,0.00578
12,A111G A120G A145G C150A C169G U176C,0.0371
13,A111G A120G,0.3
14,A111G A120G A145C C150U C169G,0.088
15,A111G A120G A145C C150U C169A,0.0431
16,A111G A120G A145C C150U C169U,0.0714
17,A111G A120C C169U,0.271
18,A111G A120C C169A,0.0146
19,A111G A120C C169G,0.0129
20,A111G A120G A145C C150U C169G U176C,0.036
21,A111G A120G A145C C150U C169G U176A,0.0412
22,A111G A120G A145C C150U C169G U176G,0.00498
23,A111G A120C C150U C169A U176G,0.00384
24,A111G A120C C150U C169A U176C,0.012

row,Variant,reverse-splicing fitness
1,A111G A120C C150U C169A U176A,0.0182
2,A111G A120C C150G C169A U176G,0.00466
3,A111G A120C C150G C169A U176C,0.00784
4,A111G A120C C150G C169A U176A,0.00551
5,A111G A120G A145G C150A C169U U176G,0.00605
6,A111G A120G A145G C150A C169U U176A,0.0309
7,A111G A120G A145G C150A C169U U176C,0.0305
8,A111G A120G A145G C150G C169G U176G,0.0054
9,A111G A120G A145G C150G C169G U176A,0.00945
10,A111G A120G A145G C150G C169G U176C,0.0117
11,A111G A120G A145C C150G,0.036
12,A111G A120G A145C C150A,0.0175
13,A111G A120G A145C C150U,0.0745
14,A111G A120C C169A U176G,0.00421
15,A111G A120C C169A U176C,0.0167
16,A111G A120C C169A U176A,0.0147
17,A111G A120G A145C C150A C169A U176G,0.00399
18,A111G A120G A145C C150A C169A U176C,0.00695
19,A111G A120G A145C C150A C169A U176A,0.0135
20,A111G A120G A145G C150G C169U U176A,0.012
21,A111G A120G A145G C150G C169U U176G,0.00654
22,A111G A120G A145G C150G C169U U176C,0.0152
23,A111G A120G A145C C169U U176A,0.0733
24,A111G A120G A145C C169U U176G,0.00876

row,Variant,reverse-splicing fitness
1,A111G A120G A145C C169U U176C,0.0829
2,A111G A120C C150G U176A,0.0119
3,A111G A120C C150G U176G,0.00371
4,A111G A120C C150G U176C,0.036
5,A111G A120G A145C C150G C169A U176G,0.00453
6,A111G A120G A145C C150G C169A U176A,0.00837
7,A111G A120G A145C C150G C169A U176C,0.00969
8,A111G A120C C150A C169U,0.0403
9,A111G A120C U176A,0.47
10,A111G A120C U176G,0.125
11,A111G A120C U176C,0.522
12,A111G A120C C150U C169G U176A,0.0207
13,A111G A120C C150U C169G U176G,0.00459
14,A111G A120C C150U C169G U176C,0.0169
15,A111G A120G A145G C150G U176G,0.00619
16,A111G A120G A145G C150G U176C,0.0227
17,A111G A120G A145G C150G U176A,0.0132
18,A111G A120G A145G C150A C169U,0.0458
19,A111G A120G A145G C150A C169G,0.0514
20,A111G A120G A145G C150A C169A,0.0278
21,A111G A120G A145G C150U C169A U176G,0.00612
22,A111G A120G A145G C150U C169A U176C,0.0553
23,A111G A120G A145G C150U C169A U176A,0.0303
